Tests used:
[1] = target: taxol stabilized microtubules (UniProt Q6B856); experiment: co-sedimentation
[2] = target: human Ska1 complex containing GFP-Ska1 (human) (UniProt Q96BD8); experiment: single-molecule TIRF microscopy, intensity distribution and photobleaching steps

Sequence of human Ska1 complex containing GFP-Ska1 (Q96BD8 whole entry): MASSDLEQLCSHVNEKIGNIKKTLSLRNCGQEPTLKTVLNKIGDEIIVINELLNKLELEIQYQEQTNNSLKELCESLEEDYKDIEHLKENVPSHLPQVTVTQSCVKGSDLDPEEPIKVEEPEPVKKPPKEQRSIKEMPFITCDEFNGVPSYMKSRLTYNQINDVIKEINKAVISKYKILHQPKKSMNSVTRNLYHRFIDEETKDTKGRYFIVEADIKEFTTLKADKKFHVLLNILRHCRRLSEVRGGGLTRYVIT
Sequence of human Ska1 complex containing GFP-Ska1 (Q8WVK7 whole entry): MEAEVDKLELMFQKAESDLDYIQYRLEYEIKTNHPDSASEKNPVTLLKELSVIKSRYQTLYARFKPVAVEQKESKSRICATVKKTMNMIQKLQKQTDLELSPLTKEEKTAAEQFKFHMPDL
Sequence of human Ska1 complex containing GFP-Ska1 (Q8IX90 whole entry): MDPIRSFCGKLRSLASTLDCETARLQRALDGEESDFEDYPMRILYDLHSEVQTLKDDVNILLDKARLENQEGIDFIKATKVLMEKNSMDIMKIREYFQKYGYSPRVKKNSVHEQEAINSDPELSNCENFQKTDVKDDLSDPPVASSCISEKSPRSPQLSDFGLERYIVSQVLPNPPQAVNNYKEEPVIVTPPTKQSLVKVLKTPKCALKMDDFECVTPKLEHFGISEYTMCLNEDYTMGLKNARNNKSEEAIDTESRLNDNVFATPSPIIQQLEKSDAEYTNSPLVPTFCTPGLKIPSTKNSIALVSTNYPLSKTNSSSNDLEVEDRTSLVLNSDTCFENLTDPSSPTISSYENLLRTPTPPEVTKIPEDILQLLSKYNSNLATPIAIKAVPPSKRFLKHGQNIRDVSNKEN
Sequence of human Ska1 complex (Q96BD8 whole entry): as the sequence (Q96BD8 whole entry) above
Sequence of human Ska1 complex (Q8WVK7 whole entry): as the sequence (Q8WVK7 whole entry) above
Sequence of human Ska1 complex (Q8IX90 whole entry): as the sequence (Q8IX90 whole entry) above

Substance	Kd [1] [µM]	stoichiometry N [2]
human Ska1 complex (from UniProt Q96BD8 1-255; Q8WVK7 1-121; Q8IX90 1-412)	2.4	
human Ska1 complex containing GFP-Ska1 (from UniProt Q96BD8 1-255; Q8WVK7 1-121; Q8IX90 1-412)		2
C. elegans Ska1 complex (from UniProt Q9XWS0 1-243)	11.3	

Source: PMC3500403
